The results in this text go back to the Human Domainome abundance scans (Beltran et al. 2025).

± gives the uncertainty stated by the source.

To fix the notation:
B1: Protein piccolo, residues 1058 to 1114; numbered along this chain, Q9Y6V0 (parent)
chain: TCPLCKTELNIGSKDPPNFNTCTECKNQVCNLCGFNPTPHLTEIQEWLCLNCQTQRA

The variants in the data set derive from B1. The data set can be described thus: abundance fitness (aPCA) (normalised: wild type 0, dead -1); higher = more abundant; growth selection in yeast, the domain comes from the species named. The note with it: Homo sapiens.
Take TCPLCKTALNIGSKDPPNFNTCTECKNQVCNLCGFNPTPHLTEIQEWLCLNCQTQRA [E8A]: the abundance fitness was -0.244 ± 0.077.
For TCPLCKTCLNIGSKDPPNFNTCTECKNQVCNLCGFNPTPHLTEIQEWLCLNCQTQRA [E8C] the value was -0.56 ± 0.098.
For TCPLCKTELNIGSKDPPNFNTCTECLNQVCNLCGFNPTPHLTEIQEWLCLNCQTQRA [K26L] the value was 0.103 ± 0.095.
The result for TCPLCKTELNIGSKDPPNFNTCTECNNQVCNLCGFNPTPHLTEIQEWLCLNCQTQRA [K26N] reads 0.09 ± 0.19.
In the case of MCPLCKTELNIGSKDPPNFNTCTECKNQVCNLCGFNPTPHLTEIQEWLCLNCQTQRA [T1M], the abundance fitness was -0.031 ± 0.18.
For WCPLCKTELNIGSKDPPNFNTCTECKNQVCNLCGFNPTPHLTEIQEWLCLNCQTQRA [T1W] the value was -0.516 ± 0.23.
For TCPLCKTELNIGSKDPPNFNTCTECKNQVCNLCGFNPTPHLTEFQEWLCLNCQTQRA [I44F] the value was 0.155 ± 0.18; for TCVLCKTELNIGSKDPPNFNTCTECKNQVCNLCGFNPTPHLTEIQEWLCLNCQTQRA [P3V], -0.294 ± 0.11; for TCLLCKTELNIGSKDPPNFNTCTECKNQVCNLCGFNPTPHLTEIQEWLCLNCQTQRA [P3L], -0.282 ± 0.092.
The result for TCPLCKTELNIGSKDPPFFNTCTECKNQVCNLCGFNPTPHLTEIQEWLCLNCQTQRA [N18F] reads -0.199 ± 0.16.
Consider TCPLCKTELNIGSKDPPIFNTCTECKNQVCNLCGFNPTPHLTEIQEWLCLNCQTQRA [N18I], for which the abundance fitness was -0.5 ± 0.23.
For TCPLCKTELNIGSKDPPNFNTCTECKNQVCNLCGFNPTPHLTEIQEMLCLNCQTQRA [W47M] the value was -0.06 ± 0.17; for TWPLCKTELNIGSKDPPNFNTCTECKNQVCNLCGFNPTPHLTEIQEWLCLNCQTQRA [C2W], -0.904 ± 0.15.
With TCPLCKTELNIGSKKPPNFNTCTECKNQVCNLCGFNPTPHLTEIQEWLCLNCQTQRA [D15K], the abundance fitness is -0.014 ± 0.25.
For TCPLCKTELNIGSKRPPNFNTCTECKNQVCNLCGFNPTPHLTEIQEWLCLNCQTQRA [D15R] the value was -0.257 ± 0.089; for TCPLCKTELNIGSKDPPNFNTCTECKNQVCNLCGFNPTPHLTEIQEWLCANCQTQRA [L50A], 0.129 ± 0.12.
The result for TCPLCKTELNIGSKDPPNFNTCTECKNQVGNLCGFNPTPHLTEIQEWLCLNCQTQRA [C30G] reads -0.584 ± 0.1.
As to TCPLCKTEINIGSKDPPNFNTCTECKNQVCNLCGFNPTPHLTEIQEWLCLNCQTQRA [L9I], the abundance fitness was -0.098 ± 0.14.
Turning to TCPLCKTELNIGSKDPPNFNTATECKNQVCNLCGFNPTPHLTEIQEWLCLNCQTQRA [C22A], the abundance fitness was -0.647 ± 0.11.
The result for TCPLCKTELNIGSKDPPNFNTVTECKNQVCNLCGFNPTPHLTEIQEWLCLNCQTQRA [C22V] reads -0.733 ± 0.099; that for TCPLCKTELNIGSKDPPNFNTCTECKNQVCNLCGFNWTPHLTEIQEWLCLNCQTQRA [P37W], -0.012 ± 0.11; that for TCPLCKTELNIGSKDPPNFNTCTECKNQVCNLCGFNCTPHLTEIQEWLCLNCQTQRA [P37C], 0.05 ± 0.14.
The result for TCPLCKTELNIGSKDPPNFNTCTECKNQVCNLMGFNPTPHLTEIQEWLCLNCQTQRA [C33M] reads -0.812 ± 0.14.
The result for TCPLCKTELNIGSKDPPNFNTCTECKNQVCNLCGFNPTPHQTEIQEWLCLNCQTQRA [L41Q] reads 0.007 ± 0.17; that for TCPLCKTELNIVSKDPPNFNTCTECKNQVCNLCGFNPTPHLTEIQEWLCLNCQTQRA [G12V], -0.405 ± 0.084; that for TCPLCKTELNIASKDPPNFNTCTECKNQVCNLCGFNPTPHLTEIQEWLCLNCQTQRA [G12A], -0.361 ± 0.095.
As for TCPLCKTELNINSKDPPNFNTCTECKNQVCNLCGFNPTPHLTEIQEWLCLNCQTQRA [G12N], the abundance fitness was -0.611 ± 0.32.
The result for TCPLCKTELNIGSKDPPNFGTCTECKNQVCNLCGFNPTPHLTEIQEWLCLNCQTQRA [N20G] reads 0.055 ± 0.083.
For TCPLCKTELNHGSKDPPNFNTCTECKNQVCNLCGFNPTPHLTEIQEWLCLNCQTQRA [I11H] the value was 0.054 ± 0.14; for TCPLCKTELNPGSKDPPNFNTCTECKNQVCNLCGFNPTPHLTEIQEWLCLNCQTQRA [I11P], 0.11 ± 0.14.
For TCPLCKTELNCGSKDPPNFNTCTECKNQVCNLCGFNPTPHLTEIQEWLCLNCQTQRA [I11C] the value was -0.133 ± 0.1; for TCPLCKTELNIGSKDPPNFNTCTECKNQVCNLCGFNPTNHLTEIQEWLCLNCQTQRA [P39N], -0.214 ± 0.21.
Regarding TCPLCKTELEIGSKDPPNFNTCTECKNQVCNLCGFNPTPHLTEIQEWLCLNCQTQRA [N10E], the abundance fitness was -0.022 ± 0.11.
For TCPLCKTELNIGSKDPPNFNTCTECKNQVCNLCGFNPTPHLTEILEWLCLNCQTQRA [Q45L], the abundance fitness is -0.093 ± 0.1.
TCPLCKTELNIGSKDPPNINTCTECKNQVCNLCGFNPTPHLTEIQEWLCLNCQTQRA [F19I]: the abundance fitness stood at 0.178 ± 0.22.
The result for TCPLCKTELNIGSRDPPNFNTCTECKNQVCNLCGFNPTPHLTEIQEWLCLNCQTQRA [K14R] reads 0.042 ± 0.1; that for TCPLCKTELNIGSKDPPNFNTCTECKAQVCNLCGFNPTPHLTEIQEWLCLNCQTQRA [N27A], 0.151 ± 0.11; that for TCPLCKTELNIGSKDPPNFNTCTECKYQVCNLCGFNPTPHLTEIQEWLCLNCQTQRA [N27Y], -0.452 ± 0.18.
With TCPLCKTELNIGSKDPPNFNTCTECKNQVCNLCGFNPTPHLTEIQEWLCLNQQTQRA [C52Q], the abundance fitness was -0.841 ± 0.19.
The result for TCPLCKTELNIGSKDPPNFNTCTECKNQVCNLCGFNPTPHLTEIQEWLCLNMQTQRA [C52M] reads -0.981 ± 0.23; that for TCPLCKTELNIGSKDPPNFNTCTECKNQVCNSCGFNPTPHLTEIQEWLCLNCQTQRA [L32S], 0.128 ± 0.093.
For TCPLCKTELNIGSKDPPNFNTCTECKNQVCNMCGFNPTPHLTEIQEWLCLNCQTQRA [L32M] the value was -0.131 ± 0.13; for TCPLCKTELNIGSKDPPNFNTCTECKNQVCFLCGFNPTPHLTEIQEWLCLNCQTQRA [N31F], 0.117 ± 0.13; for TCPLCKTELNIGSKDPPNFNTCTECKNQVCYLCGFNPTPHLTEIQEWLCLNCQTQRA [N31Y], 0.011 ± 0.16.
The result for TCPLCKTELNIGSKDPPNFNTCTECKNQVCNLCHFNPTPHLTEIQEWLCLNCQTQRA [G34H] reads -0.37 ± 0.24.
Consider TCPLCKTELNIGSKDPPNFNTCTECKNDVCNLCGFNPTPHLTEIQEWLCLNCQTQRA [Q28D], for which the abundance fitness is -0.398 ± 0.26.
The result for TCPLCKTELNIGSKDPPNFNTCTECKNQVCNLCGFNPTPHLTEIQLWLCLNCQTQRA [E46L] reads -0.124 ± 0.1.
